Data set [1] has as its target human PAD4 Ca5_site mutant (D168A/E252A) (human) (UniProt Q9UM07). As to the kind of experiment: AUC; sedimentation velocity, 20 °C, 42,000 rpm, absorbance at 280 nm, SEDFIT continuous size distribution; no urea, 10 mM Ca2+, 50 mM Tris-HCl pH 7.4; dimer to monomers.
Data set [2] concerns the molecule itself. As to the kind of experiment: AUC; sedimentation velocity at three protein concentrations (0.1, 0.3 and 0.9 mg/ml), globally fit with SEDPHAT; dimer to monomers.
Data set [3] concerns the molecule itself. As to the kind of experiment: AUC; sedimentation velocity, 20 °C, 42,000 rpm, absorbance at 280 nm, SEDFIT continuous size distribution; no urea, 10 mM Ca2+, 50 mM Tris-HCl pH 7.4; dimer to monomers.

As a reminder, the stoichiometry N is the number of molecules, sites or subunits per partner or assembly. A word on the Kd: it is the free concentration of one partner at which half of the binding sites on the other are occupied at equilibrium, for simple one-to-one binding. A higher Kd goes with lower affinity.

Turning to “human PAD4 Ca5_site mutant (D168A/E252A) (from UniProt Q9UM07 1-663) (enzyme)”, the stoichiometry N in data set [1] was found to be 2.

B1: PAD4 Ca1_site mutant (Q349A/E353A/E411A) (enzyme, human, UniProt Q9UM07 1-663, looked up)
chain: MAQGTLIRVTPEQPTHAVCVLGTLTQLDICSSAPEDCTSFSINASPGVVVDIAHGPPAKKKSTGSSTWPLDPGVEVTLTMKVASGSTGDQKVQISYYGPKTPPVKALLYLTGVEISLCADITRTGKVKPTRAVKDQRTWTWGPCGQGAILLVNCDRDNLESSAMDCEDDEVLDSEDLQDMSLMTLSTKTPKDFFTNHTLVLHVARSEMDKVRVFQATRGKLSSKCSVVLGPKWPSHYLMVPGGKHNMDFYVEALAFPDTDFPGLITLTISLLDTSNLELPEAVVFQDSVVFRVAPWIMTPNTQPPQEVYACSIFENEDFLKSVTTLAMKAKCKLTICPEEENMDDQWMADEMAIGYIQAPHKTLPVVFDSPRNRGLKEFPIKRVMGPDFGYVTRGPQTGGISGLDSFGNLAVSPPVTVRGKEYPLGRILFGDSCYPSNDSRQMHQALQDFLSAQQVQAPVKLYSDWLSVGHVDEFLSFVPAPDRKGFRLLLASPRSCYKLFQEQQNEGHGEALLFEGIKKKKQQKIKNILSNKTLREHNSFVERCIDWNRELLKRELGLAESDIIDIPQLFKLKEFSKAEAFFPNMVNMLVLGKHLGIPKPFGPVINGRCCLEEKVCSLLEPLGLQCTFINDFFTYHIRHGEVHCGTNVRRKPFSFKWWNMVP
notes: human peptidylarginine deiminase 4 (PAD4), cDNA cloned into pQE30; source: E. coli JM109, purified (Ni-NTA)
In turn, B1 came in with a Kd in data set [2] of 0.16 ± 0.001 µM.

B2: human PAD4 Ca3_site mutant (N153A/D155A/D157A/D165A/D176A/D179A) (enzyme, UniProt Q9UM07 1-663, looked up)
chain: MAQGTLIRVTPEQPTHAVCVLGTLTQLDICSSAPEDCTSFSINASPGVVVDIAHGPPAKKKSTGSSTWPLDPGVEVTLTMKVASGSTGDQKVQISYYGPKTPPVKALLYLTGVEISLCADITRTGKVKPTRAVKDQRTWTWGPCGQGAILLVACARANLESSAMACEDDEVLDSEALQAMSLMTLSTKTPKDFFTNHTLVLHVARSEMDKVRVFQATRGKLSSKCSVVLGPKWPSHYLMVPGGKHNMDFYVEALAFPDTDFPGLITLTISLLDTSNLELPEAVVFQDSVVFRVAPWIMTPNTQPPQEVYACSIFENEDFLKSVTTLAMKAKCKLTICPEEENMDDQWMQDEMEIGYIQAPHKTLPVVFDSPRNRGLKEFPIKRVMGPDFGYVTRGPQTGGISGLDSFGNLEVSPPVTVRGKEYPLGRILFGDSCYPSNDSRQMHQALQDFLSAQQVQAPVKLYSDWLSVGHVDEFLSFVPAPDRKGFRLLLASPRSCYKLFQEQQNEGHGEALLFEGIKKKKQQKIKNILSNKTLREHNSFVERCIDWNRELLKRELGLAESDIIDIPQLFKLKEFSKAEAFFPNMVNMLVLGKHLGIPKPFGPVINGRCCLEEKVCSLLEPLGLQCTFINDFFTYHIRHGEVHCGTNVRRKPFSFKWWNMVP
notes: source: E. coli JM109, purified (Ni-NTA)
Take B2: the “stoichiometry N” value in data set [3] was determined as 2.

B3: PAD4 Ca4_site mutant (D155A/D157A/D179A/D388A) (enzyme, human, UniProt Q9UM07 1-663, looked up)
chain: MAQGTLIRVTPEQPTHAVCVLGTLTQLDICSSAPEDCTSFSINASPGVVVDIAHGPPAKKKSTGSSTWPLDPGVEVTLTMKVASGSTGDQKVQISYYGPKTPPVKALLYLTGVEISLCADITRTGKVKPTRAVKDQRTWTWGPCGQGAILLVNCARANLESSAMDCEDDEVLDSEDLQAMSLMTLSTKTPKDFFTNHTLVLHVARSEMDKVRVFQATRGKLSSKCSVVLGPKWPSHYLMVPGGKHNMDFYVEALAFPDTDFPGLITLTISLLDTSNLELPEAVVFQDSVVFRVAPWIMTPNTQPPQEVYACSIFENEDFLKSVTTLAMKAKCKLTICPEEENMDDQWMQDEMEIGYIQAPHKTLPVVFDSPRNRGLKEFPIKRVMGPAFGYVTRGPQTGGISGLDSFGNLEVSPPVTVRGKEYPLGRILFGDSCYPSNDSRQMHQALQDFLSAQQVQAPVKLYSDWLSVGHVDEFLSFVPAPDRKGFRLLLASPRSCYKLFQEQQNEGHGEALLFEGIKKKKQQKIKNILSNKTLREHNSFVERCIDWNRELLKRELGLAESDIIDIPQLFKLKEFSKAEAFFPNMVNMLVLGKHLGIPKPFGPVINGRCCLEEKVCSLLEPLGLQCTFINDFFTYHIRHGEVHCGTNVRRKPFSFKWWNMVP
notes: as for B1
As to B3, the Kd in data set [2] amounted to 0.41 ± 0.004 µM.

B4: PAD4 Ca2_site mutant (E351A/D369A/N373A) (enzyme, human, UniProt Q9UM07 1-663, looked up)
chain: MAQGTLIRVTPEQPTHAVCVLGTLTQLDICSSAPEDCTSFSINASPGVVVDIAHGPPAKKKSTGSSTWPLDPGVEVTLTMKVASGSTGDQKVQISYYGPKTPPVKALLYLTGVEISLCADITRTGKVKPTRAVKDQRTWTWGPCGQGAILLVNCDRDNLESSAMDCEDDEVLDSEDLQDMSLMTLSTKTPKDFFTNHTLVLHVARSEMDKVRVFQATRGKLSSKCSVVLGPKWPSHYLMVPGGKHNMDFYVEALAFPDTDFPGLITLTISLLDTSNLELPEAVVFQDSVVFRVAPWIMTPNTQPPQEVYACSIFENEDFLKSVTTLAMKAKCKLTICPEEENMDDQWMQDAMEIGYIQAPHKTLPVVFASPRARGLKEFPIKRVMGPDFGYVTRGPQTGGISGLDSFGNLEVSPPVTVRGKEYPLGRILFGDSCYPSNDSRQMHQALQDFLSAQQVQAPVKLYSDWLSVGHVDEFLSFVPAPDRKGFRLLLASPRSCYKLFQEQQNEGHGEALLFEGIKKKKQQKIKNILSNKTLREHNSFVERCIDWNRELLKRELGLAESDIIDIPQLFKLKEFSKAEAFFPNMVNMLVLGKHLGIPKPFGPVINGRCCLEEKVCSLLEPLGLQCTFINDFFTYHIRHGEVHCGTNVRRKPFSFKWWNMVP
notes: as for B1
In data set [2], B4 registered a Kd of 0.15 ± 0.001 µM.

B5: human PAD4 Ca2_site mutant (E351A/D369A/N373A) (enzyme, UniProt Q9UM07 1-663, looked up)
chain: MAQGTLIRVTPEQPTHAVCVLGTLTQLDICSSAPEDCTSFSINASPGVVVDIAHGPPAKKKSTGSSTWPLDPGVEVTLTMKVASGSTGDQKVQISYYGPKTPPVKALLYLTGVEISLCADITRTGKVKPTRAVKDQRTWTWGPCGQGAILLVNCDRDNLESSAMDCEDDEVLDSEDLQDMSLMTLSTKTPKDFFTNHTLVLHVARSEMDKVRVFQATRGKLSSKCSVVLGPKWPSHYLMVPGGKHNMDFYVEALAFPDTDFPGLITLTISLLDTSNLELPEAVVFQDSVVFRVAPWIMTPNTQPPQEVYACSIFENEDFLKSVTTLAMKAKCKLTICPEEENMDDQWMQDAMEIGYIQAPHKTLPVVFASPRARGLKEFPIKRVMGPDFGYVTRGPQTGGISGLDSFGNLEVSPPVTVRGKEYPLGRILFGDSCYPSNDSRQMHQALQDFLSAQQVQAPVKLYSDWLSVGHVDEFLSFVPAPDRKGFRLLLASPRSCYKLFQEQQNEGHGEALLFEGIKKKKQQKIKNILSNKTLREHNSFVERCIDWNRELLKRELGLAESDIIDIPQLFKLKEFSKAEAFFPNMVNMLVLGKHLGIPKPFGPVINGRCCLEEKVCSLLEPLGLQCTFINDFFTYHIRHGEVHCGTNVRRKPFSFKWWNMVP
notes: as for B2
As to B5, the “stoichiometry N” value in data set [3] was 2.

B6: human PAD4 Ca1_site mutant (Q349A/E353A/E411A) (enzyme, UniProt Q9UM07 1-663, looked up)
chain: MAQGTLIRVTPEQPTHAVCVLGTLTQLDICSSAPEDCTSFSINASPGVVVDIAHGPPAKKKSTGSSTWPLDPGVEVTLTMKVASGSTGDQKVQISYYGPKTPPVKALLYLTGVEISLCADITRTGKVKPTRAVKDQRTWTWGPCGQGAILLVNCDRDNLESSAMDCEDDEVLDSEDLQDMSLMTLSTKTPKDFFTNHTLVLHVARSEMDKVRVFQATRGKLSSKCSVVLGPKWPSHYLMVPGGKHNMDFYVEALAFPDTDFPGLITLTISLLDTSNLELPEAVVFQDSVVFRVAPWIMTPNTQPPQEVYACSIFENEDFLKSVTTLAMKAKCKLTICPEEENMDDQWMADEMAIGYIQAPHKTLPVVFDSPRNRGLKEFPIKRVMGPDFGYVTRGPQTGGISGLDSFGNLAVSPPVTVRGKEYPLGRILFGDSCYPSNDSRQMHQALQDFLSAQQVQAPVKLYSDWLSVGHVDEFLSFVPAPDRKGFRLLLASPRSCYKLFQEQQNEGHGEALLFEGIKKKKQQKIKNILSNKTLREHNSFVERCIDWNRELLKRELGLAESDIIDIPQLFKLKEFSKAEAFFPNMVNMLVLGKHLGIPKPFGPVINGRCCLEEKVCSLLEPLGLQCTFINDFFTYHIRHGEVHCGTNVRRKPFSFKWWNMVP
notes: as for B2
With B6, in data set [3], the “stoichiometry N” value came to 2.

B7: PAD4 Ca3_site mutant (N153A/D155A/D157A/D165A/D176A/D179A) (enzyme, human, UniProt Q9UM07 1-663, looked up)
chain: MAQGTLIRVTPEQPTHAVCVLGTLTQLDICSSAPEDCTSFSINASPGVVVDIAHGPPAKKKSTGSSTWPLDPGVEVTLTMKVASGSTGDQKVQISYYGPKTPPVKALLYLTGVEISLCADITRTGKVKPTRAVKDQRTWTWGPCGQGAILLVACARANLESSAMACEDDEVLDSEALQAMSLMTLSTKTPKDFFTNHTLVLHVARSEMDKVRVFQATRGKLSSKCSVVLGPKWPSHYLMVPGGKHNMDFYVEALAFPDTDFPGLITLTISLLDTSNLELPEAVVFQDSVVFRVAPWIMTPNTQPPQEVYACSIFENEDFLKSVTTLAMKAKCKLTICPEEENMDDQWMQDEMEIGYIQAPHKTLPVVFDSPRNRGLKEFPIKRVMGPDFGYVTRGPQTGGISGLDSFGNLEVSPPVTVRGKEYPLGRILFGDSCYPSNDSRQMHQALQDFLSAQQVQAPVKLYSDWLSVGHVDEFLSFVPAPDRKGFRLLLASPRSCYKLFQEQQNEGHGEALLFEGIKKKKQQKIKNILSNKTLREHNSFVERCIDWNRELLKRELGLAESDIIDIPQLFKLKEFSKAEAFFPNMVNMLVLGKHLGIPKPFGPVINGRCCLEEKVCSLLEPLGLQCTFINDFFTYHIRHGEVHCGTNVRRKPFSFKWWNMVP
notes: as for B1
Turning to B7, the Kd in data set [2] was determined as 0.16 ± 0.001 µM.

B8: human PAD4 Ca4_site mutant (D155A/D157A/D179A/D388A) (enzyme, UniProt Q9UM07 1-663, looked up)
chain: MAQGTLIRVTPEQPTHAVCVLGTLTQLDICSSAPEDCTSFSINASPGVVVDIAHGPPAKKKSTGSSTWPLDPGVEVTLTMKVASGSTGDQKVQISYYGPKTPPVKALLYLTGVEISLCADITRTGKVKPTRAVKDQRTWTWGPCGQGAILLVNCARANLESSAMDCEDDEVLDSEDLQAMSLMTLSTKTPKDFFTNHTLVLHVARSEMDKVRVFQATRGKLSSKCSVVLGPKWPSHYLMVPGGKHNMDFYVEALAFPDTDFPGLITLTISLLDTSNLELPEAVVFQDSVVFRVAPWIMTPNTQPPQEVYACSIFENEDFLKSVTTLAMKAKCKLTICPEEENMDDQWMQDEMEIGYIQAPHKTLPVVFDSPRNRGLKEFPIKRVMGPAFGYVTRGPQTGGISGLDSFGNLEVSPPVTVRGKEYPLGRILFGDSCYPSNDSRQMHQALQDFLSAQQVQAPVKLYSDWLSVGHVDEFLSFVPAPDRKGFRLLLASPRSCYKLFQEQQNEGHGEALLFEGIKKKKQQKIKNILSNKTLREHNSFVERCIDWNRELLKRELGLAESDIIDIPQLFKLKEFSKAEAFFPNMVNMLVLGKHLGIPKPFGPVINGRCCLEEKVCSLLEPLGLQCTFINDFFTYHIRHGEVHCGTNVRRKPFSFKWWNMVP
notes: as for B2
On to B8, for which, in data set [3], the “stoichiometry N” value was 2.

For the origin of these results see PMC5445078, “Probing the Roles of Calcium-Binding Sites during the Folding of Human Peptidylarginine Deiminase 4” (Scientific Reports, 2017).
